The values that follow come from patent publication US20060134122A1, “Peptides of syndecan-1 for inhibition of cancer” (priority 2004, published 2006).

This experiment concerns MDA-MB-231 human mammary carcinoma cells. Kind of experiment: Cell spreading assay (rhodamine-phalloidin), MDA-MB-231. Type of experiment: cell-based. The following applies: 2 h, LM609 30 μg/mL, GST-mS1ED or GST-mS4ED 20 μM; for cell spreading on FN: wells coated with 10 μg/mL FN, mAb 13 25 μg/mL; for cell spreading on VN: wells coated with 10 μg/mL VN, absence of serum. The method, then:
FIG. 1 —MDA-MB-231 human mammary carcinoma cell spreading on VN, but not FN, is disrupted by soluble, recombinant Sdc-1ED. Cells were plated on wells coated with 10 μg/mL of VN or FN in plating medium alone or medium containing either 30 μg/mL mAb LM609, 25 μg/mL mAb 13, 20 μM GST-mS1ED or -mS4ED. Cells were incubated at 37° C. for 2 h, fixed and stained with rhodamine-conjugated phalloidin. Bar, 50 μm.
FIGS. 6A-B—Deletion of a region of the Sdc-1ED blocks αvβ3-mediated cell spreading. (FIG. 6A) Graphic representation of S1 expression constructs transfected into MDA-MB-231 cells and their relative expression levels as detected by FACS (mean fluorescent intensity). Note the locations of the mAb 281.2 and B-B4 binding sites; asterisks indicate the HS attachment sites. (FIG. 6B) Cells transfected with empty vector (NEO) or S1 constructs were seeded in plating medium on wells coated with either anti-hS1 mAb B-B4 (NEO+inset, hS1 and insets of mS1) or anti-mS1 mAb 281.2 (all others). Where noted, cells were pretreated in suspension with 1 μg/mL mAb P5D2 for 15 min prior to plating. Cells were incubated at 37° C. for 2 h, fixed and stained with rhodamine-conjugated phalloidin. Bar, 50 μm.
FIGS. 8A-H—Downregulation of Sdc-1 expression by siRNA disrupts cell spreading and migration on VN. (FIG. 8A) SiRNA targeting of hS1 mRNA. FACS analysis for (FIGS. 8B-C) hS1 (mAb B-B4), (FIG. 8D) hS4 (mAb F94-8G3) and (FIG. 8E) mS1 (mAb 281.2) expression against IgG controls (black filled histograms) in NEO and GPI-mS1ED expressing MDA-MB-231 cells 72 h after transfection with either lipid-vehicle alone (Vehicle or (V)) or 200 nM siRNA (RNAi or (R)). (FIG. 8F) NEO^MDA-MB-231 cells and MDA-MB-231 cells expressing GPI-mS1ED, mS1^Δ88-252, mS1^Δ122-252 and mS1^TDM were transfected with lipid-vehicle alone or 200 nM hS1-siRNA and seeded on wells coated with either 10 μg/ml of VN or FN. Cells were incubated at 37° C. for 2 h, fixed and stained with rhodamine-conjugated phalloidin. Bar, 50 μm. (FIG. 8G-H) Lipid-vehicle (gray-filled) or hS1-siRNA (black-filled) transfected cells were also plated on polycarbonate filters coated with either 10 μg/ml of VN (FIG. 8G) or FN (FIG. 8H) in a modified Boyden chamber. After 16 h, cells that migrated through the filter in response to 10% FBS in the lower chamber were quantified by colorimetric staining.
MDA-MB-231 human mammary carcinoma cells, plated in the absence of serum, adhere to and spread (˜15-20 min after plating) on wells coated with either 10 μg/mL VN or FN (FIG. 1). […] LM609 has no effect on spreading in response to FN; instead, the cells rely on […] to respond to FN as spreading is blocked by either 25 μg/mL mAb 13 (FIG. 1; Mould et al., 1996) or mAb 16 (unpublished data; Akiyama et al., 1989). […]

B1: GST-mS4ED: recombinant GST fusion of mouse syndecan-4 ectodomain, specificity control (protein)
chain: ESIRETEVIDPQDLLEGRYFSGALPDDEDAGGSDDFELSGSGDLDDTEEPRPFPEVIEPLVPLDNHIPENAQPGIRVPSEPKELEENEVIPKRAPSDVGDDMSNKVSMSSTAQGSNIFERTE
modifications: left off: a dimerising Fc or GST
notes: recombinant GST fusion of mouse syndecan-4 ectodomain, specificity control
In the case of B1, the “cell spreading on FN” value is “no effect” and the “cell spreading on VN” value was “no effect”.

B2: GST-mS1ED: recombinant mouse syndecan-1 ectodomain expressed as a fusion protein with GST (protein)
chain: QIVAVNVPPEDQDGSGDDSDNFSGSGTGALPDTLSRQTPSTWKDVWLLTATPTAPEPTSSNTETAFTSVLPAGEKPEEGEPVLHVEAEPGFTARDKEKEVTTRPRETVQLPITQRASTVRVTTAQAAVTSHPHGGMQPGLHETSAPTAPGQPDHQPPRVEGGGTSVIKEVVEDGTANQLPAGEGSGEQDFTFETSGENTAVAAVEPGLRNQPPVDEGATGASQSLLDRKEVLG
modifications: left off: a dimerising Fc or GST
notes: recombinant mouse syndecan-1 ectodomain expressed as a fusion protein with GST
With B2, the “cell spreading on FN” value is recorded as “no effect” and the “cell spreading on VN” value is listed as “blocks cell spreading”.
